Test results reported in patent CN117603358A (INST MICROBIOLOGY CAS; 3SBIO GROUP; SHANXI ADVANCED …, dated 2024).

Biological target: S蛋白, SARS-CoV-2原型毒株 (SARS-CoV-2 (prototype), UniProt P0DTC2 14-1273)
Assay: cell-based or functional assay

B1: L4.65单抗 (antibody, V domains shown)
VH: QITLKESGPTLVKPTQTLTLTCTFSGFSLSTSGVGVAWIRQPPGKALEWLALIYWDNDKRSSPSLNNRLTITKDTSKNQVVLTMTNMDPEDTATYYCAHFFSHYDSSNYYYGSWFDPWGQGTLVTVSS
VL: EIVLTQSPGTLSLSPGERATLSCRASQSFDSRYLGWYQQKSGQAPRLLIYGASSRATGIPDRFSGSGSGTDFTLTISRLEPEDFAVYYCQQFGDSPFTFGQGTKLEIKR
In the case of B1, the “假病毒中和效果 IC50” value is reported as 0.000709 mg/L.

B2: CoV56单抗 (antibody, V domains shown)
VH: EVQLVESGGGVVQPGGSLRLSCAVSGFTFDDYAMHWVRQAPGKGLDWVSLISGDGSYTYYADSVKGRFTISRDSSKNSLYLQMNSLRTEDTALYYCAKAQTPTLWWLQDAFDIWGQGTMVTVSS
VL: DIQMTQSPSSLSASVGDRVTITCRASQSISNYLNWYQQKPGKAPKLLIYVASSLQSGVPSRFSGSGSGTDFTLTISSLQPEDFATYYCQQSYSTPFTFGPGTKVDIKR
For B2, the “假病毒中和效果 IC50” value was 8.38 mg/L.
